Values belong to the molecule of their own block, whether it stands above or below them.
What was measured:
Assay in all cases: inhibition of PDE activity
PDE5/6cd M804A (human) = PDE5/6cd M804A (human) (UniProt O76074)
PDE5/6cd P803D (human) = PDE5/6cd P803D (human) (UniProt O76074)
[1] = target: PDE5/6cd I802T/P803D/M804L (human) (UniProt O76074)
PDE5/6cd I802T (human) = PDE5/6cd I802T (human) (UniProt O76074)
[2] = target: chimeric PDE5/PDE6 catalytic domain PDE5/6cd (human) (UniProt O76074)
[3] = target: PDE5/6cd I802A/P803D/M804L (human) (UniProt O76074)
PDE5/6cd F823A (human) = PDE5/6cd F823A (human) (UniProt O76074)
PDE5/6cd V796E (human) = PDE5/6cd V796E (human) (UniProt O76074)
PDE5/6cd M804L (human) = PDE5/6cd M804L (human) (UniProt O76074)
PDE5/6cd L792R (human) = PDE5/6cd L792R (human) (UniProt O76074)
[4] = target: PDE5/6cd L792R/V796E/Q799I (human) (UniProt O76074)
PDE5/6cd Q799I (human) = PDE5/6cd Q799I (human) (UniProt O76074)
[5] = target: PDE5/6cd I802A//M804A (human) (UniProt O76074)
PDE5/6cd I802A (human) = PDE5/6cd I802A (human) (UniProt O76074)
[6] = target: PDE5cd R792L/E796V/I799Q/A823F (human, UniProt O76074 535-860, R792L | E796V | I799Q | A823F)
PDE5cd A823F = PDE5cd A823F (human, UniProt O76074 535-860, A823F)
[7] = target: PDE5cd T802I/D803P/L804M/A823F (human, UniProt O76074 535-860, T802I | D803P | L804M | A823F)

Ki (PDE5/6cd M804A (human)): 10.3 µM | Ki (PDE5/6cd P803D (human)): 6.7 µM | Ki [1]: 21.8 µM | Ki (PDE5/6cd I802T (human)): 8.6 µM | Ki [2]: 1.7 µM | Ki [3]: 25.5 µM | Ki (PDE5/6cd F823A (human)): 15.1 µM | Ki (PDE5/6cd V796E (human)): 1.8 µM | Ki (PDE5/6cd M804L (human)): 2 µM | Ki (PDE5/6cd L792R (human)): 3.2 µM | Ki [4]: 6 µM | Ki (PDE5/6cd Q799I (human)): 3.5 µM | Ki [5]: 26.2 µM | Ki (PDE5/6cd I802A (human)): 12.1 µM
Molecule: Pγ C-terminal peptide Pγ_(63-87) (from UniProt P04972 63-87)

Ki [6]: 23.5 µM | maximal inhibition (%) [6]: 78 ± 5% | Ki (PDE5cd A823F): 44.3 µM | maximal inhibition (%) (PDE5cd A823F): 52 ± 4% | Ki [7]: 19.4 µM | maximal inhibition (%) [7]: 72 ± 4%
B1: Pγ C-terminal peptide Pγ_(63-87) (peptide, UniProt P04972 63-87, looked up)
peptide: DITVICPWEAFNHLELHELAQYGII

From paper PMC2864356 (Biochemistry, 2010)
